{"source": "patent US20220380801A1", "about": "“TRIPARTITE SYSTEMS FOR PROTEIN DIMERIZATION AND METHODS OF USE” (priority 2019, published 2022)", "key": {"[1]": {"test_system": "fluorogenic HCV protease FRET substrate", "assay": "HCV NS3/4A PR protease activity assay (fluorogenic peptide cleavage)", "assay_type": "biochemical", "conditions": "compared to WT", "description": "To assess enzyme activity, cleavage of a fluorogenic HCV protease FRET substrate with an EDANS-DABCYL donor-quencher pair by purified HCV NS3/4A PR and the S139A mutant (RET 51, AnaSpec) was measured. When in close proximity (10-100 Å), as would be the case for the intact peptide, EDANS is excited at 340 nm, and the energy emitted from EDANS (at 490 nm) is quenched by DABCYL. Cleavage of the peptide by the HCV NS3/4A PR separates DABCYL from EDANS, allowing detection of fluorescence at 490 nm.\nSerial dilutions of HCV NS3/4A PR and the active site mutant S139A in assay buffer (HEPES pH 7.8, 5 mM DTT, 100 mM NaCl, 10% glycerol, 0.01% CHAPS) were incubated with the fluorogenic substrate at room temperature. Fluorescence was measured after 3 hours using a PerkinElmer Envision plate reader (excitation 340 nm, emission 490 nm)."}, "[2]": {"test_system": "GFP-PEST expression in monoclonal HEK293 cell lines", "assay": "Flow cytometry kinetics of GFP-PEST expression after simeprevir removal", "assay_type": "cell-based, human", "conditions": "24h simeprevir induction, then removal"}, "[3]": {"test_system": "luciferase reporter gene in HEK293 cells", "assay": "Transcriptional regulation assay (split transcription factor), luciferase reporter", "assay_type": "cell-based, human", "conditions": "protease variant-AD and DBD-PRSIM_23 (three tandem copies)", "source_text": "The iDimerize regulated transcription system (Takara) was used to test the ability of PRSIM-based CIDs to regulate gene expression. […] The DBD and AD are separately fused to the two protein components of a CID such that, only in the presence of the small molecule inducer, the AD is brought into close proximity to the DBD, recruiting the transcription machinery to a promoter harbouring the DBD recognition sites. The iDimerize regulated transcription system (Takara) provides two vectors, pHet-Act1-2 and pZFHD1-Luciferase. The pHet-Act1-2 vector encodes two fusion proteins that represent a positive control: one is a fusion between FRB (T82L mutant; DmrC) and an activation domain (AD) from human p65 (SEQ ID NO: 42); the other is a fusion protein comprised of a DNA binding domain (ZFHD1) (SEQ ID NO: 43) fused to three tandem copies of FKBP12 (DmrA). These sequences are preceded by a CMV promoter and separated by an internal ribosome entry site (IRES). The ZFHD1 vector encodes luciferase preceded by an inducible promoter consisting of 12 copies of the recognition sequence of the ZFHD1 DBD upstream of a minimal IL-2 promoter. Binding of the DBD to its recognition sequence and recruitment of the transcriptional machinery by the AD initiates transcription of the luciferase reporter gene. The DNA sequence encoding HCV NS3/4A PR (S139A) was purchased as a DNA string from GeneArt and cloned into the pHet-Act1-2 vector as either an N-terminal fusion partner to the activation domain (SEQ ID NO: 44) (replacing FRB) or as a C-terminal fusion partner to the DNA binding domain (SEQ ID NO: 45) (replacing FKBP12) with flexible linkers (TGGGGSGGGGS (SEQ ID NO: 185) and SA, respectively) between the fusion partners. Subsequently, sequences encoding one copy of a panel of 12 PRSIM molecules (Table 2) were purchased as DNA strings from GeneArt and were cloned using Gibson assembly into the HCV NS3/4A PR (S139A)-containing pHetAct1-2 constructs described above, as a fusion partner to either the DBD (SEQ ID NOS: 46-56) or AD (SEQ ID NOS: 57-67), respectively. An equivalent construct was generated to replace the three copies of FKBP12 in pHet-Act1-2 with a single copy of FKBP12. The sequence of the constructs encoding both activation domain and DNA-binding domain fusion proteins was confirmed by Sanger sequencing of the entire coding region.\nSequences encoding the three HCV NS3/4A PR (S139A) mutants (Table 6) were purchased as DNA strings from GeneArt and were cloned using Gibson assembly into the pHetAct1-2 HCV NS3/4A PR (S139A)-PRSIM_23 (3 tandem copy) construct described above as a fusion partner to the AD (SEQ ID NOs: 211-216).\nAll transcriptional regulation assays were performed in adherent HEK293 cells cultured in 384-well plates. Cells enzymatically dissociated from a tissue culture flask were counted and plated at 7.5×10^3 cells/well in a 384-well plate. The plates were incubated overnight at 37° C. with 5% CO2 to allow the cells to adhere. On day 2, the cells were co-transfected with a pHet-Act1-2 plasmid (containing the FRB:FKBP12 control fusion proteins (Clontech) or the HCV NS3/4A PR (S139A):PRSIM fusion proteins) and a pZFHD1 plasmid (encoding either luciferase (Clontech) or NanoLuc-PEST (as described above)) using Lipofectamine LTX (ThermoFisher). On day 3, wells were treated with different concentrations of either A/C heterodimeriser (for the FRB:FKBP12 control), simeprevir or with vehicle control, and 24 hours later luminescence was quantified with an Envision plate reader immediately following addition of SteadyGlo luciferase substrate (Promega) or Nano-Glo Vivazine luciferase substrate (Promega). Alternatively, reverse transfections were carried out on Day 1, addition of dimeriser on Day 2 and luminescence quantified 24 hours later on Day 3.\nLuminescence readings were converted into fold-change by dividing the signal in the presence of simeprevir by that in the absence of simeprevir."}}, "data": [{"molecule": "“WT” S139A: HCV NS3/4A protease with active site mutation S139A, SEQ ID NO: 2 (protein, HCV NS3/4A PR (S139A)) MKKKGSVVIVGRINLSGDTAYAQQTRGEEGCQETSQTGRDKNQVEGEVQIVSTATQTFLATSINGVLWTVYHGAGTRTIASPKGPVTQMYTNVDKDLVGWQAPQGSRSLTPCTCGSSDLYLVTRHADVIPVRRRGDSRGSLLSPRPISYLKGSAGGPLLCPAGHAVGIFRAAVSTRGVAKAVDFIPVESLETTMRSP", "values": [{"measurement": "enzymatic activity", "setting": "[1]", "result": "No enzymatic activity could be detected at most concentrations tested"}, {"measurement": "GFP fluorescence after simeprevir removal", "setting": "[2]", "result": "retained high GFP-fluorescence over 24 h"}, {"measurement": "Max fold change", "setting": "[3]", "result": 6973}]}]}
